Residue numbers refer to the chain shown, from its start. Names and notes keep the numbering of the source. Each block holds one binder with its values, some of them ahead of it.
Target: T1, CD3 epsilon homodimer protein (UniProt P07766 23-126)
T1 construct: Construct of the homodimer is not described; also called CD3 (CD3 epsilon)
Assay: SPR Biacore T200, CD3e homodimer on chip, antibody analyte;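 also: CD3 epsilon homodimer amine-coupled on CM4 sensor chip, antibodies injected as analyte at 25 °C in HBS-EP+, ratio ≥0.8 taken as binding retained versus unaltered parent antibody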

T1 sequence (P07766 23-126): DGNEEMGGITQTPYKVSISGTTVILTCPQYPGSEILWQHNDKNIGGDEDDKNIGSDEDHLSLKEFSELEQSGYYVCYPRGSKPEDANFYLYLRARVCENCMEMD

B1: GLS3000 K50T one-arm antibody (antibody, human IgG1, kappa, L234A L235A, N297A, name in Kabat numbering)
light: DIVMTQSPLSLPVTPGEPASISCRSSQSLVHSNRNTYLHWYQQKPGQAPRLLIYTVSNRFSGVPDRFSGSGSGTDFTLKISRVEAEDVGVYYCGQGTQVPYTFGQGTKLEIKRTVAAPSVFIFPPSDEQLKSGTASVVCLLNNFYPREAKVQWKVDNALQSGNSQESVTEQDSKDSTYSLSSTLTLSKADYEKHKVYACEVTHQGLSSPVTKSFNRGEC
heavy: QVQLVESGGGVVQPGRSLRLSCAASGFTFSNAWMHWVRQAPGKGLEWVAQIKAKSNNYATYYAESVKGRFTISRDDSKNSLYLQMNSLKTEDTAVYYCRYVHYGAYYGVDAWGQGTTVTVSSASTKGPSVFPLAPSSKSTSGGTAALGCLVKDYFPEPVTVSWNSGALTSGVHTFPAVLQSSGLYSLSSVVTVPSSSLGTQTYICNVNHKPSNTKVDKKVEPKSCDKTHTCPPCPAPEAAGGPSVFLFPPKPKDTLMISRTPEVTCVVVDVSHEDPEVKFNWYVDGVEVHNAKTKPREEQYASTYRVVSVLTVLHQDWLNGKEYKCKVSNKALPAPIEKTISKAKGQPREPQVYTLPPSRCELTKNQVSLSCAVKGFYPSDIAVEWESNGQPENNYKTTPPVLDSDGSFFLVSKLTVDKSRWQQGNVFSCSVMHEALHNHYTQKSLSLSPDYKDDDDK
chain: EPKSSDKTHTCPPCPAPELLGGPSVFLFPPKPKDTLMISRTPEVTCVVVDVSHEDPEVKFNWYVDGVEVHNAKTKPREEQYNSTYRVVSVLTVLHQDWLNGKEYKCKVSNKALPAPIEKTISKAKGQPREPQVCTLPPSRDELTKNQVSLWCLVKGFYPSDIAVEWESNGQPENNYKTTPPVLDSDGSFFLYSKLTVDKSRWQQGNVFSCSVMHEALHNRYTQKSLSLSP
ratio of amounts bound (altered form/GLS3000): 0.19

B3: GLS3000 L33P one-arm antibody (antibody, human IgG1, kappa, L234A L235A, N297A, name in Kabat numbering)
light: B1 light with L38P, T55K
heavy: B1 heavy
chain: B1 chain
ratio of amounts bound (altered form/GLS3000): 0.3

B4: GLS3000 L33V one-arm antibody (antibody, human IgG1, kappa, L234A L235A, N297A, name in Kabat numbering)
light: B1 light with L38V, T55K
heavy: B1 heavy
chain: B1 chain
ratio of amounts bound (altered form/GLS3000): 1.05

B9: GLS3000 N53R one-arm antibody (antibody, human IgG1, kappa, L234A L235A, N297A, name in Kabat numbering)
light: B1 light with T55K, N58R
heavy: B1 heavy
chain: B1 chain
ratio of amounts bound (altered form/GLS3000): 1.58

B16: GLS3000 N53M one-arm antibody (antibody, human IgG1, kappa, L234A L235A, N297A, name in Kabat numbering)
light: B1 light with T55K, N58M
heavy: B1 heavy
chain: B1 chain
ratio of amounts bound (altered form/GLS3000): 0.62

B17: GLS3000 L33F one-arm antibody (antibody, human IgG1, kappa, L234A L235A, N297A, name in Kabat numbering)
light: B1 light with L38F, T55K
heavy: B1 heavy
chain: B1 chain
ratio of amounts bound (altered form/GLS3000): 0.78

B19: GLS3000 N53T one-arm antibody (antibody, human IgG1, kappa, L234A L235A, N297A, name in Kabat numbering)
light: B1 light with T55K, N58T
heavy: B1 heavy
chain: B1 chain
ratio of amounts bound (altered form/GLS3000): 0.56

B20: GLS3000 K74T one-arm antibody (antibody, human IgG1, kappa, L234A L235A, N297A, name in Kabat numbering)
light: B1 light with T55K, K79T
heavy: B1 heavy
chain: B1 chain
ratio of amounts bound (altered form/GLS3000): 0.84

B21: GLS3000 N53S one-arm antibody (antibody, human IgG1, kappa, L234A L235A, N297A, name in Kabat numbering)
light: B1 light with T55K, N58S
heavy: B1 heavy
chain: B1 chain
ratio of amounts bound (altered form/GLS3000): 0.69

B22: GLS3000 N53F one-arm antibody (antibody, human IgG1, kappa, L234A L235A, N297A, name in Kabat numbering)
light: B1 light with T55K, N58F
heavy: B1 heavy
chain: B1 chain
ratio of amounts bound (altered form/GLS3000): 0.69

B23: GLS3000 N53H one-arm antibody (antibody, human IgG1, kappa, L234A L235A, N297A, name in Kabat numbering)
light: B1 light with T55K, N58H
heavy: B1 heavy
chain: B1 chain
ratio of amounts bound (altered form/GLS3000): 1.18

Other lines, results leading:

ratio of amounts bound (altered form/GLS3000): 0.72
B2: GLS3000 L33E one-arm antibody (antibody, human IgG1, kappa, L234A L235A, N297A, name in Kabat numbering)
light: B1 light with L38E, T55K
heavy: B1 heavy
chain: B1 chain

ratio of amounts bound (altered form/GLS3000): 0.5
B5: GLS3000 N53I one-arm antibody (antibody, human IgG1, kappa, L234A L235A, N297A, name in Kabat numbering)
light: B1 light with T55K, N58I
heavy: B1 heavy
chain: B1 chain

ratio of amounts bound (altered form/GLS3000): 0.54
B6: GLS3000 N53E one-arm antibody (antibody, human IgG1, kappa, L234A L235A, N297A, name in Kabat numbering)
light: B1 light with T55K, N58E
heavy: B1 heavy
chain: B1 chain

ratio of amounts bound (altered form/GLS3000): 0.94
B7: GLS3000 K107E one-arm antibody (antibody, human IgG1, kappa, L234A L235A, N297A, name in Kabat numbering)
light: B1 light with T55K, K112E
heavy: B1 heavy
chain: B1 chain

ratio of amounts bound (altered form/GLS3000): 0.93
B8: GLS3000 L33M one-arm antibody (antibody, human IgG1, kappa, L234A L235A, N297A, name in Kabat numbering)
light: B1 light with L38M, T55K
heavy: B1 heavy
chain: B1 chain

ratio of amounts bound (altered form/GLS3000): 0.81
B10: GLS3000 N53P one-arm antibody (antibody, human IgG1, kappa, L234A L235A, N297A, name in Kabat numbering)
light: B1 light with T55K, N58P
heavy: B1 heavy
chain: B1 chain

ratio of amounts bound (altered form/GLS3000): 1.08
B11: GLS3000 N53K one-arm antibody (antibody, human IgG1, kappa, L234A L235A, N297A, name in Kabat numbering)
light: B1 light with T55K, N58K
heavy: B1 heavy
chain: B1 chain

ratio of amounts bound (altered form/GLS3000): 0.77
B12: GLS3000 N53Q one-arm antibody (antibody, human IgG1, kappa, L234A L235A, N297A, name in Kabat numbering)
light: B1 light with T55K, N58Q
heavy: B1 heavy
chain: B1 chain

ratio of amounts bound (altered form/GLS3000): 0.24
B13: GLS3000 K50Y one-arm antibody (antibody, human IgG1, kappa, L234A L235A, N297A, name in Kabat numbering)
light: B1 light with T55Y
heavy: B1 heavy
chain: B1 chain

ratio of amounts bound (altered form/GLS3000): 0.76
B14: GLS3000 N53G one-arm antibody (antibody, human IgG1, kappa, L234A L235A, N297A, name in Kabat numbering)
light: B1 light with T55K, N58G
heavy: B1 heavy
chain: B1 chain

ratio of amounts bound (altered form/GLS3000): 0.56
B15: GLS3000 N53L one-arm antibody (antibody, human IgG1, kappa, L234A L235A, N297A, name in Kabat numbering)
light: B1 light with T55K, N58L
heavy: B1 heavy
chain: B1 chain

ratio of amounts bound (altered form/GLS3000): 0.83
B18: GLS3000 L33I one-arm antibody (antibody, human IgG1, kappa, L234A L235A, N297A, name in Kabat numbering)
light: B1 light with L38I, T55K
heavy: B1 heavy
chain: B1 chain

Reference: patent US20240270846A1 (published 2024)
